Measurements as given in patent US20250210128A1, “COMPUTER-IMPLEMENTED DESIGN OF PEPTIDE:RECEPTOR SIGNALING COMPLEXES FOR ENHANCED CHEMOTAXIS” (Ecole Polytechnique Federale de Lausanne (EPFL), priority 2022, published 2025).

Legend:
[1] = target: CLdes CXCR4 sensor (Cdes2 design combined with H113N) (human); experiment: cell-based or functional assay
[2] = target: WT CXCR4 with an N-terminal 3xHA-tag (human) (UniProt P61073); experiment: cell-based or functional assay
Sequence of WT CXCR4 with an N-terminal 3xHA-tag (human) (P61073 other isoform, or with tags, fused parts or gaps): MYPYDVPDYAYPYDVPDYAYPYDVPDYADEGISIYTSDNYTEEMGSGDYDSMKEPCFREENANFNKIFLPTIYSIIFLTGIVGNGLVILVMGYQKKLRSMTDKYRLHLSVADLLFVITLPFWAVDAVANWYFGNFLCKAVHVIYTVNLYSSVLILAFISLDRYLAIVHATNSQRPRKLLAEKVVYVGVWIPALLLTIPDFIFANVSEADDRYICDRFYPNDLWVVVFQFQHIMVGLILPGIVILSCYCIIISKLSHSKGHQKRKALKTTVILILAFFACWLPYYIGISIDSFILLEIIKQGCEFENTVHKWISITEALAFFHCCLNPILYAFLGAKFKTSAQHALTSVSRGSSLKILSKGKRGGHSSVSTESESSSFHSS

For “full-length wild-type CXCL12 chemokine (from UniProt P48061 22-93) (ligand)”, the migration of transduced primary human T cells (Boyden chamber, migration index over no-chemoattractant control) [1] was < 5 fold and the migration of transduced primary human T cells (Boyden chamber, migration index over no-chemoattractant control) [2] was 1.5 fold.
